In the supplement of paper PMC9732359:
± gives the uncertainty stated by the source.

Assay: protein stability index of a GFP-peptide fusion (yeast GPS) (PSI 1-4); higher = more stable; sorted into four equal gates, so the index is relative within each strain
How it was run: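 For each peptide, the protein stability index sums the read frequency in every gate after multiplying it by the gate number. Read frequencies came from plasmids that were PCR-amplified from each gate and Illumina-sequenced, with reads assigned to strains by barcodes. The gates were four equal bins of GFP/Cherry fluorescence ratio applied to mid-log yeast in leucine-free medium carrying a pooled library of tiled 17-residue yeast protein peptides fused downstream of GFP on a Cherry-expressing plasmid.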

Sequence	protein stability index (doa10∆)	protein stability index (pdr5∆)	protein stability index (san1∆)	protein stability index (ubr1∆)
KRTRLESLKNLNESRSQ [SMC3]	2.53 ± 0.092	2.4 ± 0.075	2.61 ± 0.071	2.82 ± 0.13
YCSGNIYDFHKMENLMR [YJL039C/NUP192]	2.77 ± 0.068	2.79 ± 0.059	2.52 ± 0.05	2.73 ± 0.052
KANISLETLEHNGAPHH [RPO21]	3.29 ± 0.16	3.05 ± 0.15	3.19 ± 0.12	–
KKIVDDTIMENPEPNKK [IRR1]	2.14 ± 0.071	2.81 ± 0.054	2.53 ± 0.084	2.59 ± 0.078
AIPNGIHLQRFDEGTTL [RPO21]	2.29 ± 0.064	1.89 ± 0.11	–	2.32 ± 0.062
MDRTSLRKQYSAIDEEI [SMC3]	2.28 ± 0.21	–	–	2.63 ± 0.25
IFERMIEKCLKASELKL [RPN2]	2.17 ± 0.15	2.21 ± 0.099	–	1.85 ± 0.079
REDMPFTAEGIVPDLII [RPB2]	2.49 ± 0.092	3.42 ± 0.15	3.1 ± 0.093	2.79 ± 0.11
ICNPVHKHREARGLTAT [RPL15B]	2.81 ± 0.078	2.52 ± 0.082	2.59 ± 0.092	2.42 ± 0.062
KGRYAPETGDHVVGRIA [RRP4]	3.03 ± 0.08	3.21 ± 0.08	2.6 ± 0.11	2.67 ± 0.11
GPVGKECADLWPRVASN [RPL23A]	3.2 ± 0.13	3.3 ± 0.11	3.17 ± 0.1	3.23 ± 0.057
LQAIDLLENPNCFFDVI [DIS3]	2.48 ± 0.068	2.29 ± 0.066	3.06 ± 0.056	2.38 ± 0.056
YTNSVELRSLSKKDFKI [YMR129W/POM152]	2.41 ± 0.057	2.64 ± 0.058	2.32 ± 0.078	2.92 ± 0.069
LQIVNQLPANMVHLYSI [RPC17]	1.85 ± 0.043	1.9 ± 0.045	1.67 ± 0.068	1.79 ± 0.039
FDSELIHLKQKLSESLD [SMC3]	–	2.88 ± 0.17	3.22 ± 0.13	3.24 ± 0.14
KKHKQKKVLEIDFFKTD [BRN1]	2.54 ± 0.037	2.67 ± 0.043	2.83 ± 0.039	2.59 ± 0.035
MKRMVAQWERSKLSQEF [SNF12]	3.23 ± 0.22	3.05 ± 0.15	3.11 ± 0.23	3.21 ± 0.087
EQKGQMAKKEGTPKTDS [MED4]	3.22 ± 0.21	3 ± 0.22	3.13 ± 0.19	–
LNENARELEQIKPKIAL [SNF12]	3.23 ± 0.3	3 ± 0.23	2.64 ± 0.25	–
VLSDDAKKLSSFDFGNE [ARP9]	2.93 ± 0.055	3.06 ± 0.09	2.86 ± 0.062	3.06 ± 0.056
EEIKQSARNYDKFKLNE [SMC1]	3.25 ± 0.066	3.24 ± 0.073	3.16 ± 0.076	3.31 ± 0.046
YPFDKLESWWLVLGEVS [BRR2]	3.18 ± 0.18	3.23 ± 0.15	3.46 ± 0.11	3.41 ± 0.24
VSISTSVKPHVVEPEHM [SIR4]	2.54 ± 0.078	2.99 ± 0.089	2.53 ± 0.087	2.65 ± 0.052
LQSDKNFLDNCLFENDL [ITC1]	2.13 ± 0.079	3.03 ± 0.073	2.92 ± 0.055	3.01 ± 0.059
FTGDFLRRVEERFTKSK [FAS1]	3.29 ± 0.14	3.6 ± 0.16	3.19 ± 0.083	2.78 ± 0.27
LQKAVRGHVLQFEWHQN [SNF2]	1.27 ± 0.043	1.34 ± 0.063	1.37 ± 0.16	1.35 ± 0.058

Sequence	protein stability index (doa10∆)	protein stability index (pdr5∆)	protein stability index (san1∆)	protein stability index (ubr1∆)
QDPKTLVALLSRDLWCF [SSN2]	1.39 ± 0.057	1.34 ± 0.043	1.31 ± 0.15	1.54 ± 0.073
FHTSFSAVVGPNGSGKS [SMC4]	3.09 ± 0.089	3.18 ± 0.084	3.35 ± 0.085	3.37 ± 0.12
PYCPIASITGTGSNDRC [YMR129W/POM152]	1.96 ± 0.099	1.82 ± 0.1	1.56 ± 0.18	1.64 ± 0.055
HVKRITKIAQSQTMAET [ECM29]	2.33 ± 0.057	2.46 ± 0.036	2.02 ± 0.061	2.07 ± 0.033
TAEERVGRRAANLRVLN [RPL15A]	2.83 ± 0.12	3.28 ± 0.14	2.75 ± 0.14	2.92 ± 0.11
LRNLHMKRMVAQWERSK [SNF12]	2.88 ± 0.076	2.89 ± 0.1	2.89 ± 0.067	2.88 ± 0.086
VLKSSVYEYVIASTLGP [RPC82]	1.43 ± 0.085	1.53 ± 0.07	1.23 ± 0.11	1.43 ± 0.055
GFERLTVNEPQMSDKHA [SRB7]	3.06 ± 0.12	3.36 ± 0.082	3.25 ± 0.14	3.16 ± 0.051
DLSISALLGDKIYNFGE [RPN9]	3.08 ± 0.068	3.11 ± 0.065	3.15 ± 0.061	3.12 ± 0.091
TVQNEILGDLGKEFGTT [FAS2]	3.03 ± 0.2	2.34 ± 0.25	2.57 ± 0.093	2.9 ± 0.16
QCIVYPNCLFILKLLNG [SOH1]	1.3 ± 0.062	1.51 ± 0.061	1.27 ± 0.14	1.29 ± 0.047
IAAKTHILRISFLDRKR [SIN4]	2.53 ± 0.1	2.65 ± 0.09	1.84 ± 0.073	2.42 ± 0.049
PPLLVYKWTQGINNLSE [PRP8]	3.09 ± 0.12	3.11 ± 0.073	3.29 ± 0.076	3.25 ± 0.098
PTGPKTAIDKNGNITYS [FAS2]	2.9 ± 0.061	3.08 ± 0.057	3 ± 0.059	2.91 ± 0.057
AGDWKYDRQLSSLFLDG [FAS2]	2.16 ± 0.057	2.81 ± 0.065	2.34 ± 0.11	2.23 ± 0.056
IGGRRFSEGTSADREIQ [RPT4]	2.51 ± 0.085	2.59 ± 0.088	1.98 ± 0.12	2.77 ± 0.19
MEYHISNTDETKGENYQ [FAS2]	3.03 ± 0.12	3.22 ± 0.14	2.75 ± 0.2	–
NPNTNTNSNNTPLQSQL [PGD1]	2.91 ± 0.071	2.96 ± 0.066	2.88 ± 0.058	2.98 ± 0.07
YITARIMAKRPFDKKSN [FAS1]	2.74 ± 0.094	2.79 ± 0.078	1.96 ± 0.12	2.86 ± 0.081
GRPRYDTFGEGIIITDQ [BRR2]	3.02 ± 0.15	2.85 ± 0.14	2.62 ± 0.14	3.11 ± 0.11
ITHQGANSESGHYQAFI [UBP6]	3.04 ± 0.19	2.95 ± 0.08	3.16 ± 0.071	3.05 ± 0.079
DEDEDNDLDEDDIYDIS [RPN4]	–	3.46 ± 0.2	3.56 ± 0.11	3.33 ± 0.15
VLKFAAHTGATPIAGRF [RPS0A]	2.23 ± 0.21	2.85 ± 0.11	2.81 ± 0.13	2.1 ± 0.12
DDESEQISLNRLIDSMK [RRI1]	3.03 ± 0.16	3.11 ± 0.28	–	3.15 ± 0.14
TKIGAKRIHSVRTRGGN [RPS8A]	2.84 ± 0.15	3.05 ± 0.11	2.93 ± 0.088	2.72 ± 0.12
IREIDVAGGKKALAIFV [RPS7A]	2.29 ± 0.089	1.75 ± 0.11	1.49 ± 0.17	1.77 ± 0.066
